Test results: patent US8273705B2, “Conversion of apoptotic proteins” (The Burnham Institute, priority 2002, dated 2012)
Entries after “also recorded” stand apart in the source; their conditions may differ.

Assays:
293T cells [1] = test: DAPI apoptosis assay in 293T cells; assay type: cell-based, human; details: 293T, co-expressed with Bcl-2, 36 h, DAPI
Protocol: Apoptosis assays—For nuclear morphological change analysis, cells were trypsinized, washed with PBS, fixed with 3.7% paraformaldehyde, and stained with DAPI (4,6-diamidino-2-phenylindole) (50 μg/ml) to visualize the nuclei by UV-microscopy. The percentages of apoptotic cells were determined by counting 300 GFP-positive cells, scoring cells having nuclear fragmentation and/or chromatin condensation.
DAPI staining was used to study the apoptotic effect of TR3/Bcl-2 interaction. 293T cells were transfected with GFP-TR3/ΔDBD alone or together with Bcl-2. After 36 h, nuclei were stained by DAPI and nuclear fragmentation and chromatin condensation were identified. Cells were also stained with anti-Bcl-2 antibody, followed by TRITC-conjugated secondary antibody (Sigma). Bcl-2 and GFP-ΔDBD expression and nuclear morphology were visualized by fluorescence microscopy, and the two images were overlaid. […] But, when Bcl-2 was cotransfected, a significant amount of transfected cells underwent apoptosis. For example, approximately 4% of cells transfected with either TR3/ΔDBD or Bcl-2 were apoptotic, compared to 35% of cell transfected with both. […] Cotransfection of Bcl-2, however, prevented BAX-induced apoptosis in these cells (see FIG. 4). The effect of Bcl-2 on apoptotic potential of TR3/ΔDBD in lung cancer and breast cancer cells was also investigated.
To characterize the pro-apoptotic mechanism of Bcl-2 in the setting of TR3-induced apoptosis, various TR3 mutants and Bcl-2 mutants were co-expressed in HEK293T cells. TR3 mutants were transfected into 293T cells together with or without Bcl-2 expression vector or with Bcl-2 mutants. After 36 h, nuclei were stained by DAPI. Cells displaying nuclear condensation or fragmentation were scored.
The role of various Bcl-2 mutants in mediating apoptosis induction by TR3 was next studied. […] The hydrophobic cleft of Bcl-2 is involved in its anti-apoptotic effect through its interaction with BH3 domain of pro-apoptotic molecules (Reed 1997 Semin Hematol 34:9-19; Reed 1997 Nature 387:773-776). To investigate whether the BH3 domain-binding motif of Bcl-2 is also involved in its apoptotic effect, various Bcl-2 mutants including Y108K Bcl-2, with a mutation in the BH3 domain-binding cleft, L137A, and G145A (all with impaired interaction with bax), were cotransfected together with TR3/ΔDBD. […] Bcl-2 mutations (Y108K, L137A, G145A) that impaired its interaction with Bax, abolished the Bcl-2 inhibitory effect on Bax-induced apoptosis, consistent with previous observations that the hydrophobic cleft of Bcl-2 is essential for its anti-apoptotic effect. […] Thus, an intact BH3 domain-binding motif in Bcl-2 is involved in its pro-apoptotic effect. In contrast to the inhibitory effect of Bcl-2 on Bax-induced apoptosis TR3/ΔDBD-induced apoptosis was augmented by co-expression of Bcl-2 in HEK293T cells.
Mitochondrial targeting of TR3 has been previously identified as being involved in its apoptotic effect. To study whether mitochondrial localization of the TR3/ΔDBD/Bcl-2 complex was involved in their apoptotic effect, TR3/ΔDBD was cotransfected with Bcl-2/ATM, a Bcl-2 lacking its transmembrane domain. […] Thus, mitochondrial localization of TR3/ΔDBD/Bcl-2 complex is involved in this apoptotic effect.

Bcl-2 = biological target: T1, Bcl-2 (Homo sapiens, UniProt P10415); test: Co-IP assay of TR3 mutants with Bcl-2 in HEK293T cells; assay type: binding; details: GFP fusions co-transfected with Bcl-2 in HEK293T cells
T1 construct: expressed in transfected cells; host or cells: HEK293T
Protocol: TR3/Bcl-2 interaction assays—Reporter gene assays using NurRE-tk-CAT in CV-1 cells, and GST pull-down assay were described previously (Li, et al. 2000 Science 289, 1159-1164). For the mammalian two-hybrid assays, CV-1 cells were co-transfected with pcDNA-Gal4TAD-TR3 or pcDNA-Gal4TAD-TR3/ΔDBD and pcDNA-Gal4DBD-Bcl-2/ΔTM along with a luciferase reporter gene driven by four copies of the Gal4-binding site. The cells were harvested and reporter gene activity was measured. For Co-IP assays, HEK293T cells were transiently transfected with various expression plasmids using a modified calcium phosphate precipitation method (Wu et al, 1997) in the presence of caspase inhibitors (zVAD-fmk) to prevent degradation of TR3 protein due to apoptosis. Cells were suspended in lysis buffer (50 mM Tris-HCl, PH7.4; 150 mM NaCl; 20 mM EDTA; 1% NP-40; 1 mM PMSF; 50 μg/ml Leupeptin; […]; 0.1 mM Na3VO4; and 1 mM DTT). Cells extracts were cleared by incubation with the Protein A/G plus Agarose beads (Santa Cruz) and then incubated with appropriate antibody and 30 μl of Protein A or G plus Agarose beads overnight at 4° C. Beads were then washed and boiled in Laemmli gel-loading solution before performing SDS-PAGE/immunoblotting using the following polyclonal or monoclonal antibodies: monoclonal mouse anti-GFP (Medical and Biological Laboratories), monoclonal mouse anti-HA (Roche Molecular Biochemicals), monoclonal mouse anti-FLAG (Sigma), monoclonal mouse anti-Myc (Santa Cruz), polyclonal rabbit anti-TR3 (Active Motif), or monoclonal mouse anti-Bcl-2 (Santa Cruz). Immunoreactive products were detected by chemiluminescence with an enhanced chemiluminescence system (ECL) (Amersham).
TR3/ΔDBD, which can constitutively reside on mitochondria, was also analyzed by co-immunoprecipitation (Co-IP) assay for its interaction with Bcl-2. GFP-TR3/ΔDBD was transfected into human embryonic kidney cell line 293T alone or together with a Bcl-2 expression vector. The expressed GFP-TR3/ΔDBD mutant protein as then precipitated by using either anti-Bcl-2 antibody or control IgG and detected by western blotting using anti-GFP antibody. The same membranes were also blotted with anti-Bcl-2 antibody to determine precipitation specificity and efficiency. Input represents 10% of total cell extract used in the precipitation assays.
Several TR3 mutants were analyzed to determine the domain of TR3 which interacts with Bcl-2. The TR3 mutants are schematically represented in FIG. 1. A Co-IP assay was performed, as described above. […] Cell extracts were prepared and incubated with anti-Bcl-2 antibody or control IgG for Co-IP assays. Lysates were immunoprecipitated by using either polyclonal rabbit anti-Bcl-2 antibody or control IgG. Cell lysates and immunoprecipitates were examined by immunoblotting using anti-GFP antibody. The same membranes were also blotted with anti-Bcl-2 antibody (Santa Cruz) to determine IP specificity and efficiency. […] This Co-IP was specific because Bcl-2 co-transfection was necessary. […] Thus, the DC1 region in the TR3 LBD is involved in the Bcl-2 interaction.
To further determine the interaction of DC1 with Bcl-2, a region of hydrophobic amino acids ([…]—SEQ ID NO: 1) was deleted from TR3/ΔDBD, and the resulting mutant (TR3/ΔDBD/Δ471-488) was analyzed for its interaction with Bcl-2. TR3/ΔDBD/[…], with eighteen amino acids from 471 to 488 in the DC1 region deleted from TR3/ΔDBD, TR3/ΔDBD/I483A (with Ile483 replaced with Ala) and TR3/ΔDBD/L487A (with Leu487 replaced with Ala) were analyzed for their interaction with Bcl-2 by in vivo Co-IP assay as described above.

LNCaP cells = test: Dominant-negative Bcl-2/1-90 in LNCaP cells; assay type: cell-based
Protocol: The next approach involved using a fragment of Bcl-2 consisting of the TR3 interaction domain (loop region) to identify whether it could act in a dominant-negative fashion to inhibit TR3 mitochondrial targeting in LNCaP cells. Cells transiently transfected with the GFP-Bcl-2/1-90 mutant comprising of the first 90 N-terminal amino acids were treated with TPA to induce expression of TR3 and mitochondrial targeting of the endogenous TR3. […] Thus, Bcl-2/1-90 inhibits TR3 mitochondrial targeting, probably by competing with endogenous Bcl-2 for binding to TR3.
The effect of inhibiting endogenous Bcl-2 expression on the TR3-dependent apoptosis in MGC80-3 cells was next analyzed. […] However, 3-Cl-AHPC-induced apoptosis was suppressed by more than half (about 60%) in Bcl-2 siRNA-transfected cells. Similar results were obtained in H460 lung cancer cells. […] Thus, Bcl-2 can manifest a pro-apoptotic phenotype in settings where TR3 is expressed and targets to mitochondria.

293T cells [2] = test: Confocal microscopy of mitochondrial targeting in 293T cells; assay type: cell-based, human
Protocol: Subcellular localization assays—Cells were seeded onto cover-slips in 6-well plates overnight, then transiently transfected with GFP-fusion expression plasmids. After 16 hours, cells were washed with PBS and fixed in 4% paraformaldehyde. For mitochondrial staining, cells were then incubated with anti-Hsp60 goat IgG (Santa Cruz, USA), followed by anti-goat IgG conjugated with Cy3 (Sigma). For cyt c staining, cells were incubated with monoclonal anti-cyt c IgG (PharMingen), followed by anti-mouse IgG conjugated with Cy5 (Amersham). Fluorescent images were collected and analyzed using a MRC-1024 MP laser-scanning confocal microscope (Bio-Rad). Subcellular fractionation assays were performed as described (Li, et al. 2000 Science 289:1159-1164). Briefly, cells (1×10^7 cells) suspended in 0.5 ml hypotonic buffer (5 mM Tris-HCl, pH 7.4, 5 mM KCl, 1.5 mM MgCl2, 0.1 mM EGTA, pH 8.0, and 1 mM DTT) were homogenized and cell extracts were centrifuged at 500×g for 5 min. The resulting supernatant was centrifuged at 10,000×g for 30 min at 4° C. to obtain the HM fraction. HM fraction was resuspended in 100 μl lysis buffer (10 mM Tris, pH 7.4, 150 mM NaCl, 1% Triton X-100, 5 mM EDTA, pH 8.0) for immunoblotting analysis.
A. confocal microscopy—First an experiment was performed to determine whether the deletion mutant TR3/ΔDBD targets mitochondria via its interaction with Bcl-2. In confocal microscopy analysis, GFP-TR3/ΔDBD and Bcl-2 were transfected into 293T cells alone or together. […] Bcl-2, TR3/ΔDBD and mitochondria (Hsp60) were visualized using confocal microscopy and the three images were overlaid.

T1 sequence (P10415 whole entry, the tested form may be a part): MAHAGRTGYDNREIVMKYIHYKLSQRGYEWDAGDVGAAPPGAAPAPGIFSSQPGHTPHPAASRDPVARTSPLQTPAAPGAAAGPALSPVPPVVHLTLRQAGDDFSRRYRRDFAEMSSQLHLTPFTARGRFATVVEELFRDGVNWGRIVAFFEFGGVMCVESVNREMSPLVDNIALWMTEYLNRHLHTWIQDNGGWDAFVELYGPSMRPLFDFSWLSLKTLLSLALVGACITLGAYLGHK

| Molecule | interaction with Bcl-2 (Co-IP) (Bcl-2) | apoptosis (293T cells [1]) | apoptosis (293T cells [1]; listed as TR3/ΔDBD/ADC1) | TR3-dependent apoptosis induced by TPA and 3-Cl-AHPC (LNCaP cells; LNCaP cells) | mitochondrial targeting of endogenous TR3 (LNCaP cells; LNCaP cells treated with TPA) | colocalization with mitochondria (293T cells [2]) |
| --- | --- | --- | --- | --- | --- | --- |
| Bcl-2/1-90: Bcl-2 mutant comprising the first 90 N-terminal amino acids (protein, UniProt P10415 1-90, looked up, fragment, GFP fusion, Bcl-2 mutant comprising the first 90 N-terminal amino acids) MAHAGRTGYDNREIVMKYIHYKLSQRGYEWDAGDVGAAPPGAAPAPGIFSSQPGHTPHPAASRDPVARTSPLQTPAAPGAAAGPALSPVP |  |  |  | suppressed TR3-dependent apoptosis | TR3 failed to target mitochondria |  |
| TR3/ΔDBD/L487A: TR3/ΔDBD with Leu487 replaced with Ala (protein, left off: large carriers; small tags and cut ends, TR3/ΔDBD with Leu487 replaced with Ala) MPCIQAQYGTPAPSPGPRDHLASDPLTPEFIKPTMDLASPEAAPAAPTALPSFSTFMDGYTGEFDTFLYQLPGTVQPCSSASSSASSTSSSSATSPASASFKFEDFQVYGCYPGPLSGPVDEALSSSGSDYYGSPCSAPSPSTPSFQPPQLSPWDGSFGHFSPSQTYLVLHRLQCARGFGDWIDSIAAFSRSLHSLLVDVPAFACLSALVLITDRHGLQEPRRVEELQNRIASCLKEHVAAVAGEPQPASCLSRLLGKLPELRTLCTQGLQRIFYLKLEDLVPPPPIIDKIFMDTLPF | significantly impaired the interaction; also recorded: largely abolished the interaction | failed to confer the apoptotic potential of Bcl-2 |  |  |  | failed to colocalize with mitochondria |
| TR3/ΔDBD/I483A: TR3/ΔDBD with Ile483 replaced with Ala (protein, left off: large carriers; small tags and cut ends, TR3/ΔDBD with Ile483 replaced with Ala) MPCIQAQYGTPAPSPGPRDHLASDPLTPEFIKPTMDLASPEAAPAAPTALPSFSTFMDGYTGEFDTFLYQLPGTVQPCSSASSSASSTSSSSATSPASASFKFEDFQVYGCYPGPLSGPVDEALSSSGSDYYGSPCSAPSPSTPSFQPPQLSPWDGSFGHFSPSQTYLVLHRLQCARGFGDWADSILAFSRSLHSLLVDVPAFACLSALVLITDRHGLQEPRRVEELQNRIASCLKEHVAAVAGEPQPASCLSRLLGKLPELRTLCTQGLQRIFYLKLEDLVPPPPIIDKIFMDTLPF | largely abolished the interaction | failed to confer the apoptotic potential of Bcl-2 |  |  |  |  |

Continued, in another order:

| interaction with Bcl-2 (Co-IP) (Bcl-2) | Molecule | apoptosis (293T cells [1]) | apoptosis (293T cells [1]; listed as TR3/ΔDBD/ADC1) | TR3-dependent apoptosis induced by TPA and 3-Cl-AHPC (LNCaP cells; LNCaP cells) | mitochondrial targeting of endogenous TR3 (LNCaP cells; LNCaP cells treated with TPA) | colocalization with mitochondria (293T cells [2]) |
| --- | --- | --- | --- | --- | --- | --- |
| strongly interact with Bcl-2 | DC1: C-terminal fragment of TR3 (467-536 aa), 69 amino acids (protein, listed as Homo sapiens) GLVLHRLQCARGFGDWIDSILAFSRSLHSLLVDVPAFACLSALVLITDRHGLQEPRRVEELQNRIASCLK | potently induced apoptosis |  |  |  |  |
| largely abolished the interaction | TR3/ΔDBD/ΔDC1: TR3/ΔDBD with DC1 deleted (protein, left off: large carriers; small tags and cut ends, TR3/ΔDBD with DC1 deleted) MPCIQAQYGTPAPSPGPRDHLASDPLTPEFIKPTMDLASPEAAPAAPTALPSFSTFMDGYTGEFDTFLYQLPGTVQPCSSASSSASSTSSSSATSPASASFKFEDFQVYGCYPGPLSGPVDEALSSSGSDYYGSPCSAPSPSTPSFQPPQLSPWDGSFGHFSPSQTYEHVAAVAGEPQPASCLSRLLGKLPELRTLCTQGLQRIFYLKLEDLVPPPPIIDKIFMDTLPF | failed to confer the apoptotic potential of Bcl-2 | did not result in apoptosis |  |  |  |
